{"source": "paper PMC9462884", "about": "“Tensin3 interaction with talin drives the formation of fibronectin-associated fibrillar adhesions” (The Journal of Cell Biology, 2022)", "target": "T1, talin R11 (recombinant wild-type mouse talin1 fragment R11) (mouse, UniProt P26039 1974-2140)", "T1 construct": "talin1, mouse, R11 rod domain, residues 1,974–2,140; 15N-labelled for the NMR experiments; also called talin R11 domain", "T1 sequence (P26039 1974-2140)": "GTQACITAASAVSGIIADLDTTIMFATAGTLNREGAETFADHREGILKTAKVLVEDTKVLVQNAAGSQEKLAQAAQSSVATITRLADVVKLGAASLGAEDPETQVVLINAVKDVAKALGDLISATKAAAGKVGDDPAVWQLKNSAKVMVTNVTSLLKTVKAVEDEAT", "assay": "ITC; 80 µM R11 in the cell, 1.2 mM peptide in the syringe; 20 mM sodium phosphate pH 6.5, 50 mM NaCl, 0.5 mM TCEP, 25°C; single-site binding model", "conditions": "both partners purified"}
{"binder": "TLDIDQSIEQLNRLILELDPT (synthetic peptide; terminal capping not stated. Limits conflict in the text: methods give 692-712 (used here, from the peptide purchase description and close to the predicted helix 690-710), results …)", "note": "[tensin3 H1 peptide]", "values": [{"measurement": "Kd", "result": 17, "unit": "µM"}, {"measurement": "dH", "result": 20.1, "unit": "kJ/mol"}]}
